Read-outs that look alike come from different tables or passages of the source.
Legend:
[1] = test system: myelinating oligodendrocytes in the CNS; format: in vivo
From the text: To study the effect of INF-γ on the myelination of oligodendrocytes during mouse development, transgenic mice that allow for temporally regulated delivery of IFN-γ to the CNS using the tetracycline (tet) controllable system (Lin, et al. (2004) J. Neurosci. 24: 10074-10083) were generated. To drive tTA expression in astrocytes, the transcriptional regulatory region of the glial fibrillary acidic protein (GFAP) gene was chosen (Brenner, et al. (1994) J. Neurosci. 14: 1030-1037). GFAP/tTA mice were mated with TRE/IFN-γ mice to produce animals hemizygous for both transgenes. When these mice are maintained on doxycycline (DOX+), expression of the IFN-γ transgene is repressed (FIG. 10A); when the double transgenic mice are released from doxycycline (DOX−) INF-γ is expressed. For the purpose of these experiments, mice received doxycycline up to day 14 of development (E14), at which time the experimental animals (DOX−) stopped receiving doxycycline, while the control animals (DOX+) were continuously fed the dug. The mRNA for IFN-γ could be detected in the DOX− mice as early as 10 days after birth (data not shown).
Brain and spinal cord tissue were analyzed using immunohistochemical methods as follows. Anesthetized mice were perfused through the left cardiac ventricle with 4% paraformaldehyde in 0.1M PBS. The half-saggital brains and transcervical spinal cord were removed, postfixed with paraformaldehyde, cryopreserved in 30% sucrose, embedded in OCT and frozen on dry ice. Frozen sections were cut in a cryostat at a thickness of 10 μm. Coronal sections at the fornix region of the corpus callosum corresponding to. Sidman sections 241-251 were selected for use, and all comparative analyses were restricted to midline corpus callosum (Sidman, et al. (1971) Atlas of the Mouse Brain and Spinal Cord (Harvard Univ. Press, Cambridge, Mass.). For immunohistochemistry, frozen sections were treated with −20° C. acetone, blocked with PBS containing 10% NGS and 0.1% Triton X-100 and incubated overnight with the primary antibody diluted in blocking solution. Appropriate fluorochrome- or enzyme-labeled secondary antibodies (Vector Laboratories, Burlingame, Calif.) were used for detection. An antibody against CC1 (APC7, 1:50; EMD Biosciences, Inc., La Jolla, Calif.) was used as a marker for mature oligodendrocytes. Antibody against MBP (1:1000; Sternberger Monoclonals, Lutherville, Mass.) was used to verify the degree of myelination. Antibody against active-caspase-3 (1:50, Cell signaling Technology, Beverly, Mass.) was used as a marker for apoptotic cells. Fluorescent stained sections were mounted with Vectashield mounting medium with DAPI (Vector Laboratories) and visualized with a Zeiss Axioplan fluorescence microscope. Images were captured using a Photometrics PXL CCD camera connected to an Apple Macintosh computer using the Open Lab software suite. Immunopositive cells were quantified by counting positive cells within the median of the corpus callosum, confined to an area of 0.04 mm^2. Only those cells with nuclei observable by DAPI staining were counted. Each MBP immunostaining slide was scored on a scale of zero to four. A score of zero indicates complete demyelination, and a score of four indicates normal myelination in the corpus callosum of adult mice. […]

Stat1 = Stat1 nuclear translocation assay in mixed primary oligodendrocyte cultures; format: cell-based, mice; conditions: 100 U/mL IFN-γ for 30 min, one hundred PLP positive cells counted
Description: Mixed primary oligodendrocyte cultures were prepared as previously described (Baerwald et al., 2000). Briefly, brain tissue was harvested from 2-3-day-old newborn pups of PLP/SOCS1 and C57B1/6J matings. Because the litters contained transgenic and wild-type pups, the brain of each animal was processed individually, cultured separately, and later genotype matched. Each brain was digested separately using 0.25% trypsin and 10 μg/ml of DNAaseI (Invitrogen) in Dulbecco's modified Eagle's medium (DMEM) for 20 min at 37° C., and cells were cultured on separate poly-D-lysine-coated […] flasks (Sigma-Aldrich). The cultures were maintained with 10% fetal bovine serum DMEM at 37° C. with 5% CO2 for 12 days, and then switched to a defined medium containing […] of insulin, 50 μg/ml of transferrin, 30 nM of selenium, 10 nM of biotin, 1 nM of progesterone, 15 nM of T3, 0.1% bovine serum albumin, and 1% […] (Sigma-Aldrich). […] One hundred PLP positive cells were manually counted in both wild-type and PLP/SOCS1 cultures. […]
The responsiveness of PLP/SOCS1 oligodendrocytes to IFN-γ was studied in primary mixed glial cultures. […] In contrast, Stat1 nuclear translocation was detected only in occasional PLP positive oligodendrocytes (6±2 cells) following IFN-γ stimulation (p<0.05).

B1: IFN-γ: pleotropic cytokine secreted by activated T lymphocytes and natural killer cells; recombinant rat IFN-γ added to cultures or transgenically expressed in mouse CNS (protein, UniProt P01581 23-156, looked up)
Interferon gamma: QGTLIESLESLKNYFNSSSMDAMEGKSLLLDIWRNWQKDGNTKILESQIISFYLRLFEVLKDNQAISNNISVIESHLITNFFSNSKAKKDAFMSIAKFEVNNPQIQHKAVNELIRVIHQLSPESSLRKRKRSRC
unmyelinated axons in the spinal cord ([1]; 14-day-old, IFN-γ expressed, PERK+/− background, doxycycline-maintained 9.8%±6.1%): 81%±14.9% | decrease of oligodendrocyte numbers in the spinal cord ([1]; 14-day-old, IFN-γ expressing, PERK+/− background): more than 50% | unmyelinated axons in the spinal cord ([1]; 14-day-old, released from doxycycline at E14, wild-type background): 30%±12.9% | mice that died by post natal day (PND) 27 ([1]; double transgenic, released from doxycycline at E14, PERK+/− background): more than 90% | TUNEL positive oligodendrocytes in the cervical spinal cord, PERK+/− versus wild-type background ([1]; released from doxycycline at E 14): 2.5 times | PLP positive oligodendrocytes with Stat1 nuclear translocation (Stat1; PLP/SOCS1 cultures): 6±2 cells | PLP positive oligodendrocytes with Stat1 nuclear translocation (Stat1; wild-type cultures): 96±3 cells
